In IntAct's records for PubMed 23932588:

B1: Tyrosine-protein phosphatase non-receptor type 5 (Mus musculus), P54830-1 (parent)
chain: MCCSERLLGLPQPVEMEAPDEAEGLPSKQKEMPPPPPPSPPSEPAQKLPPQGAGSHSLTVRSSLCLFAASQFLLACGVLWLSGHGHSWLQNTTDLISSSLTVLNHLGPVAWLGSGTWGIPSLLLVSLTVSLVIVTTLVWHLLKAPPEPPAPLPPEDRRQSVSRQPSFTYSEWMEEKVEDDFLDLDAVPETPVFDCVMDIKPETDPASLTVKSMGLQERRGSNVSLTLDMCTPGCNEEGFGYLVSPREESAHEYLLSASRVLRAEELHEKALDPFLLQAEFFEIPMNFVDPKEYDIPGLVRKNRYKTILPNPHSRVRLTSPDPEDPLSSYINANYIRGYSGEEKVYIATQGPIVSTVADFWRMVWQERTPIIVMITNIEEMNEKCTEYWPEEQVVHDGVEITVQKVIHTEDYRLRLISLRRGTEERSLKHYWFTSWPDQKTPDRAPPLLHLVREVEEAAQQEGPHCSPIIVHCSAGIGRTGCFIATSICCQQLRREGVVDILKTTCQLRQDRGGMIQTCEQYQFVHHAMSLYEKQLSLQSSE

Variants of: B1
Conditions: with MAPK14, Q16539-1
MAPK14, Q16539-1, sequence (Q16539 whole entry): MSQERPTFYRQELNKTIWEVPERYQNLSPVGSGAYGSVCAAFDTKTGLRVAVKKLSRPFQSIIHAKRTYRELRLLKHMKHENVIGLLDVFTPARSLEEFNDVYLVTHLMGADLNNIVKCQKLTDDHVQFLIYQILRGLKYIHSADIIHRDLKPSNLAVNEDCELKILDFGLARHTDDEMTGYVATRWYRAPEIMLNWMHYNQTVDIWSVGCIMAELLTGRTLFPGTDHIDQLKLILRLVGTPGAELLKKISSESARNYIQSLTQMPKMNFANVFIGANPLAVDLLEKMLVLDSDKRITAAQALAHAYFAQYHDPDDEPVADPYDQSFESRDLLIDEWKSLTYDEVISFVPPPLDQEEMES

| effect of a mutation on the interaction | Variant |
| --- | --- |
| decreasing interaction strength | F281A;I307A |
| decreasing interaction strength | F274A;F281A |
